In publication doi:10.1101/2022.12.03.518949 (bioRxiv, 2022):

Biological target: His-tagged SARS-CoV-2 RBD (SARS-CoV-2 Wuhan-Hu-1, UniProt P0DTC2)
Assay: BLI

B1: Fab fragment of THSC20.HVTR26 (Fab, V domains shown)
VH: EVQLVESGGGLVQPGGSLRLSCAASGFTVSSNYMSWVRQAPGKGLEWVSAIYSGDSTYYADSVKGRFTISRHNPKNTLYLQMNSLRAEDTAVYYCARLVGALTNIVVSGDGGAFDIWGQGTMVTVSS
VL: SYELTQPASVSGSPGQSITISCTGTSSDVGSYNLVSWYQQHPGKAPKLMIYEVSKRPSGVSNRFSGSKSGNTASLTISGLQAEDEVDYYCCSYAGSSTWVFGGGTKLTVL
  binding result: binds
